Reference: article PMC4411124

Experiments:
[1] = target: T1, SoxR (Stenotrophomonas maltophilia K279a) (UniProt B2FRT7); assay: competition
T1 sequence: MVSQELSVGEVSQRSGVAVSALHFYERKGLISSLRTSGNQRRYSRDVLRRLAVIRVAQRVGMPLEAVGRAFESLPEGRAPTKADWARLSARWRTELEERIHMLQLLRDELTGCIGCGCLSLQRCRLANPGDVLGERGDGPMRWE

[2] = target: T1, SoxR (Stenotrophomonas maltophilia K279a); assay: EMSA

Sequence | binding [1] | binding [2]
GAGGGTCGGGGTCATACGGGTCAGATGCGGGCCGCGCTTGTCAACCGACGGCGAAGATAGCAGCATGACACCTCAACTGCAGTTGAGGTCAAGCAATGGTGTCCCAGGAACTGAGCGTTGGCGAAGTCTCCCAGCGCAGTGGCGTGGCGGTTTCCGCGCTGCACTTCTACGAGCGCAAGGGGCTGATCAGCAGCCTGCGCACTTCGGGTAACCAGCGCCGCTACAGCCGCGACGTGCTGCGCCGGCTGGCGGTGATCCGC (double strand) [mfsA-soxR promoter fragment, 258 bp, wild type] | binds | binds
GCGGATCACCGCCAGCCGGCGCAGCACGTCGCGGCTGTAGCGGCGCTGGTTACCCGAAGTGCGCAGGCTGCTGATCAGCCCCTTGCGCTCGTAGAAGTGCAGCGCGGAAACCGCCACGCCACTGCGCTGGGAGACTTCGCCAACGCTCAGTTCCTGGGACACCATTGCTTGAAAGACCAGTACTGTGAGGTGTCATGCTGCTATCTTCGCCGTCGGTTGACAAGCGCGGCCCGCATCTGACCCGTATGACCCCGACCCTC (double strand) [mfsA-soxR promoter fragment, 258 bp, mutated SoxR box] | – | no binding
